Data reported in patent US7432061B2, “Assays for measuring matrix metalloproteinase activities” (BioZyme, Inc., priority 2002, dated 2008).

Assays:
collagenase 1 = molecular target: T1, collagenase 1 (Homo sapiens, UniProt P03956); experiment: Inhibition with type II collagen, FlSub3 cleavage; type: biochemical; conditions: for Improvement In Selectivity (Col-1 v Col-3): 44 ug/ml Type II Collagen vs no Type II Collagen, FlSb3; for Average Percent Inhibition from 1.1 to 6.6 Hours / Average Percent Inhibition: COL1(1.25 nM)
T1 sequence (P03956 100-469): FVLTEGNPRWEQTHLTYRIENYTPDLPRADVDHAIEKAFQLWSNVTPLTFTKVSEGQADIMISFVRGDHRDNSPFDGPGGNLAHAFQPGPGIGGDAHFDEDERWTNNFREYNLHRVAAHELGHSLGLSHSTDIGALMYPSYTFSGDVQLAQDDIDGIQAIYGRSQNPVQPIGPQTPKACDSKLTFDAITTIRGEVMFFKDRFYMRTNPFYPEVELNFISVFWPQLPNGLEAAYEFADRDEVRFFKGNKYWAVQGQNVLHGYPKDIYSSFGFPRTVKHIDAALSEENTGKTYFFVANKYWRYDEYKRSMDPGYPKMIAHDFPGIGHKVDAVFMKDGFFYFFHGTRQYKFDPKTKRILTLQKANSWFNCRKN
Method: (§1) In a 96 well plate, collagenase 3 (0.013 nM), collagenase 1 (1.25 nM), stromelysin 1 (0.8 nM), gelatinase A (0.025 nM), or gelatinase B (0.008 nM) were reacted with 20 uM FlSub3 in standard assay buffer in the presence of varying concentrations of bovine type II collagen (0.18-44 ug/ml). The type II collagen, a 1 mg/ml stock in 0.5M acetic acid, was transferred into assay buffer by passing the material through a biospin P6 column from Amersham. The reaction was initiated by addition of substrate to enzyme containing either buffer or an appropriate amount of type II collagen. Data points were taken every 15 min over a period of 15 hours using an excitation and emission wavelength of 350 and 485 nm respectively. The usable data (1-6 hours), was taken and the percent inhibition by type II collagen was calculated for each enzyme and plotted as a function of inhibitor concentration and time in the assay. It should be noted that the percent inhibition varies with time as the bovine substrate is consumed during the reaction course.

collagenase 3 = collagenase 3 (Homo sapiens, UniProt P45452); experiment: Inhibition with type II collagen, FlSub3 cleavage; type: biochemical; conditions: for Average Percent Inhibition from 1.1 to 6.6 Hours / Average Percent Inhibition: COL3(.013 nM)
Method: as §1

[1] = TypeIICOL(1.6 ug/ul), FISb3, hour 0.10 to 1.10
[2] = TypeIICOL(1.6 ug/ul), FISb3, hour 1.10 to 2.10
[3] = TypeIICOL(1.6 ug/ul), FISb3, hour 1.10 to 6.60
[4] = TypeIICOL(1.6 ug/ul), FISb3, hour 2.10 to 3.10
[5] = TypeIICOL(1.6 ug/ul), FISb3, hour 3.10 to 4.10
[6] = TypeIICOL(1.6 ug/ul), FISb3, hour 4.10 to 5.10
[7] = TypeIICOL(1.6 ug/ul), FISb3, hour 5.10 to 6.10
[8] = TypeIICOL(4.9 ug/ul), FISb3, hour 0.10 to 1.10
[9] = TypeIICOL(4.9 ug/ul), FISb3, hour 1.10 to 2.10
[10] = TypeIICOL(4.9 ug/ul), FISb3, hour 1.10 to 6.60
[11] = TypeIICOL(4.9 ug/ul), FISb3, hour 2.10 to 3.10
[12] = TypeIICOL(4.9 ug/ul), FISb3, hour 3.10 to 4.10
[13] = TypeIICOL(4.9 ug/ul), FISb3, hour 4.10 to 5.10
[14] = TypeIICOL(4.9 ug/ul), FISb3, hour 5.10 to 6.10
[15] = TypeIICOL(15 ug/ul), FISb3, hour 0.10 to 1.10
[16] = TypeIICOL(15 ug/ul), FISb3, hour 1.10 to 2.10
[17] = TypeIICOL(15 ug/ul), FISb3, hour 1.10 to 6.60
[18] = TypeIICOL(15 ug/ul), FISb3, hour 2.10 to 3.10
[19] = TypeIICOL(15 ug/ul), FISb3, hour 3.10 to 4.10
[20] = TypeIICOL(15 ug/ul), FISb3, hour 4.10 to 5.10
[21] = TypeIICOL(15 ug/ul), FISb3, hour 5.10 to 6.10
[22] = TypeIICOL(44 ug/ul), FISb3, hour 0.10 to 1.10
[23] = TypeIICOL(44 ug/ul), FISb3, hour 1.10 to 2.10
[24] = TypeIICOL(44 ug/ul), FISb3, hour 1.10 to 6.60
[25] = TypeIICOL(44 ug/ul), FISb3, hour 2.10 to 3.10
[26] = TypeIICOL(44 ug/ul), FISb3, hour 3.10 to 4.10
[27] = TypeIICOL(44 ug/ul), FISb3, hour 4.10 to 5.10
[28] = TypeIICOL(44 ug/ul), FISb3, hour 5.10 to 6.10
[29] = TypeIICOL(.18 ug/ul), FISb3, hour 0.10 to 1.10
[30] = TypeIICOL(.18 ug/ul), FISb3, hour 1.10 to 2.10
[31] = TypeIICOL(.18 ug/ul), FISb3, hour 1.10 to 6.60
[32] = TypeIICOL(.18 ug/ul), FISb3, hour 2.10 to 3.10
[33] = TypeIICOL(.18 ug/ul), FISb3, hour 3.10 to 4.10
[34] = TypeIICOL(.18 ug/ul), FISb3, hour 4.10 to 5.10
[35] = TypeIICOL(.18 ug/ul), FISb3, hour 5.10 to 6.10
[36] = TypeIICOL(.55 ug/ul), FISb3, hour 0.10 to 1.10
[37] = TypeIICOL(.55 ug/ul), FISb3, hour 1.10 to 2.10
[38] = TypeIICOL(.55 ug/ul), FISb3, hour 1.10 to 6.60
[39] = TypeIICOL(.55 ug/ul), FISb3, hour 2.10 to 3.10
[40] = TypeIICOL(.55 ug/ul), FISb3, hour 3.10 to 4.10
[41] = TypeIICOL(.55 ug/ul), FISb3, hour 4.10 to 5.10
[42] = TypeIICOL(.55 ug/ul), FISb3, hour 5.10 to 6.10

Improvement In Selectivity (Col-1 v Col-3) (collagenase 1): 2.5 fold
Improvement In Selectivity (Col-1 v Col-3) (collagenase 1; listed as collagen): four
Average Percent Inhibition from 1.1 to 6.6 Hours (collagenase 1; Type II Collagen 0.18 ug/ml): 0%
Average Percent Inhibition from 1.1 to 6.6 Hours (collagenase 1; Type II Collagen 0.54 ug/ml): 3%
Average Percent Inhibition from 1.1 to 6.6 Hours (collagenase 1; Type II Collagen 1.63 ug/ml): 0%
Average Percent Inhibition from 1.1 to 6.6 Hours (collagenase 1; Type II Collagen 4.89 ug/ml): 2%
Average Percent Inhibition from 1.1 to 6.6 Hours (collagenase 1; Type II Collagen 14.67 ug/ml): 10%
Average Percent Inhibition from 1.1 to 6.6 Hours (collagenase 1; Type II Collagen 44.00 ug/ml): 15%
Average Percent Inhibition (collagenase 1; [1]): 19%
Average Percent Inhibition (collagenase 1; [2]): 6%
Average Percent Inhibition (collagenase 1; [3]): 0%
Average Percent Inhibition (collagenase 1; [4]): 0%
Average Percent Inhibition (collagenase 1; [5]): −2%
Average Percent Inhibition (collagenase 1; [6]): −3%
Average Percent Inhibition (collagenase 1; [7]): −4%
Average Percent Inhibition (collagenase 1; [8]): 37%
Average Percent Inhibition (collagenase 1; [9]): 13%
Average Percent Inhibition (collagenase 1; [10]): 2%
Average Percent Inhibition (collagenase 1; [11]): 3%
Average Percent Inhibition (collagenase 1; [12]): 0%
Average Percent Inhibition (collagenase 1; [13]): −2%
Average Percent Inhibition (collagenase 1; [14]): −4%
Average Percent Inhibition (collagenase 1; [15]): 44%
Average Percent Inhibition (collagenase 1; [16]): 21%
Average Percent Inhibition (collagenase 1; [17]): 10%
Average Percent Inhibition (collagenase 1; [18]): 12%
Average Percent Inhibition (collagenase 1; [19]): 8%
Average Percent Inhibition (collagenase 1; [20]): 6%
Average Percent Inhibition (collagenase 1; [21]): 4%
Average Percent Inhibition (collagenase 1; [22]): 50%
Average Percent Inhibition (collagenase 1; [23]): 29%
Average Percent Inhibition (collagenase 1; [24]): 15%
Average Percent Inhibition (collagenase 1; [25]): 18%
Average Percent Inhibition (collagenase 1; [26]): 12%
Average Percent Inhibition (collagenase 1; [27]): 9%
Average Percent Inhibition (collagenase 1; [28]): 7%
Average Percent Inhibition (collagenase 1; [29]): 17%
Average Percent Inhibition (collagenase 1; [30]): 3%
Average Percent Inhibition (collagenase 1; [31]): 0%
Average Percent Inhibition (collagenase 1; [32]): 0%
Average Percent Inhibition (collagenase 1; [33]): −1%
Average Percent Inhibition (collagenase 1; [34]): −1%
Average Percent Inhibition (collagenase 1; [35]): −1%
Average Percent Inhibition (collagenase 1; [36]): 15%
Average Percent Inhibition (collagenase 1; [37]): 6%
Average Percent Inhibition (collagenase 1; [38]): 3%
Average Percent Inhibition (collagenase 1; [39]): 3%
Average Percent Inhibition (collagenase 1; [40]): 2%
Average Percent Inhibition (collagenase 1; [41]): 1%
Average Percent Inhibition (collagenase 1; [42]): 1%
inhibition of collagenase 1 by type II collagen (collagenase 1; early timepoints, FlSub3): small but significant inhibition
Average Percent Inhibition from 1.1 to 6.6 Hours (collagenase 3; Type II Collagen 0.18 ug/ml): −8%
Average Percent Inhibition from 1.1 to 6.6 Hours (collagenase 3; Type II Collagen 0.54 ug/ml): −11%
Average Percent Inhibition from 1.1 to 6.6 Hours (collagenase 3; Type II Collagen 1.63 ug/ml): −11%
Average Percent Inhibition from 1.1 to 6.6 Hours (collagenase 3; Type II Collagen 4.89 ug/ml): −28%
Average Percent Inhibition from 1.1 to 6.6 Hours (collagenase 3; Type II Collagen 14.67 ug/ml): −44%
Average Percent Inhibition from 1.1 to 6.6 Hours (collagenase 3; Type II Collagen 44.00 ug/ml): −53%
Average Percent Inhibition (collagenase 3; [1]): 16%
Average Percent Inhibition (collagenase 3; [2]): −4%
Average Percent Inhibition (collagenase 3; [3]): −11%
Average Percent Inhibition (collagenase 3; [4]): −15%
Average Percent Inhibition (collagenase 3; [5]): −13%
Average Percent Inhibition (collagenase 3; [6]): −12%
Average Percent Inhibition (collagenase 3; [7]): −11%
Average Percent Inhibition (collagenase 3; [8]): 8%
Average Percent Inhibition (collagenase 3; [9]): −31%
Average Percent Inhibition (collagenase 3; [10]): −28%
Average Percent Inhibition (collagenase 3; [11]): −38%
Average Percent Inhibition (collagenase 3; [12]): −31%
Average Percent Inhibition (collagenase 3; [13]): −25%
Average Percent Inhibition (collagenase 3; [14]): −21%
Average Percent Inhibition (collagenase 3; [15]): 6%
Average Percent Inhibition (collagenase 3; [16]): −48%
Average Percent Inhibition (collagenase 3; [17]): −44%
Average Percent Inhibition (collagenase 3; [18]): −59%
Average Percent Inhibition (collagenase 3; [19]): −50%
Average Percent Inhibition (collagenase 3; [20]): −41%
Average Percent Inhibition (collagenase 3; [21]): −34%
Average Percent Inhibition (collagenase 3; [22]): 2%
Average Percent Inhibition (collagenase 3; [23]): −55%
Average Percent Inhibition (collagenase 3; [24]): −53%
Average Percent Inhibition (collagenase 3; [25]): −71%
Average Percent Inhibition (collagenase 3; [26]): −60%
Average Percent Inhibition (collagenase 3; [27]): −49%
Average Percent Inhibition (collagenase 3; [28]): −41%
Average Percent Inhibition (collagenase 3; [29]): 6%
Average Percent Inhibition (collagenase 3; [30]): −9%
Average Percent Inhibition (collagenase 3; [31]): −8%
Average Percent Inhibition (collagenase 3; [32]): −10%
Average Percent Inhibition (collagenase 3; [33]): −8%
Average Percent Inhibition (collagenase 3; [34]): −7%
Average Percent Inhibition (collagenase 3; [35]): −6%
Average Percent Inhibition (collagenase 3; [36]): 14%
Average Percent Inhibition (collagenase 3; [37]): −11%
Average Percent Inhibition (collagenase 3; [38]): −11%
Average Percent Inhibition (collagenase 3; [39]): −15%
Average Percent Inhibition (collagenase 3; [40]): −12%
Average Percent Inhibition (collagenase 3; [41]): −10%
Average Percent Inhibition (collagenase 3; [42]): −10%
inhibition of collagenase 3 by type II collagen (collagenase 3; FlSub3): not observed
increase in specificity of collagenase 3 (factor) (collagenase 3; highest concentration of collagen, FlSb3): 2.5
effect on collagenase 3 at the highest concentrations of type II collagen (collagenase 3; highest concentrations, FlSub3): activation, rather than inhibition
Substance: Type II Collagen: bovine type II collagen, full length MMP substrate used as inhibitor of gelatinases
